Numbering of substitutions follows the chain as printed. Numbers in names are those of the source.
T1: His-tagged lamin A/C 1-300 fragment, Y45C (human), P02545
T1 chain: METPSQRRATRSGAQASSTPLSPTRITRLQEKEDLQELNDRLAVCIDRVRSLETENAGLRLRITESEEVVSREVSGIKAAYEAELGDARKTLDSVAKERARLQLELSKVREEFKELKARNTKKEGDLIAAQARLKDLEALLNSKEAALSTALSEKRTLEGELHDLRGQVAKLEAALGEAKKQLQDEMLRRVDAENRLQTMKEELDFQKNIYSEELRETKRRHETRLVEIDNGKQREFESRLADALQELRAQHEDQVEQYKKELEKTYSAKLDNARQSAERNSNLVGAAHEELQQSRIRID

T2: lamin A/C 250-400 fragment, Y267C (human, UniProt P02545 250-400, Y267C)
T2 construct: lamin A/C, human, residues 250-400 with Y267C; the methods say that preys were His-tag cleaved; also called lamin 250-400 Y267C; source: E. coli BL21 (DE3), purified (cobalt-Talon, TEV cleavage, HiTrap Q, SEC); not shown: His-tag, N-terminal, cleaved
T2 sequence (looked up): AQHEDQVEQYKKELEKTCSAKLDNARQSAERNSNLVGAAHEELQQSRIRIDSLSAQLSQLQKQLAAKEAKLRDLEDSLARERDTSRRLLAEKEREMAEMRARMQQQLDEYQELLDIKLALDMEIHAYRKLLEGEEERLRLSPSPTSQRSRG

T3: lamin A/C 250-400 fragment, K316C (human, UniProt P02545 250-400, K316C)
T3 construct: lamin A/C, human, residues 250-400 with K316C; the methods say that preys were His-tag cleaved; also called lamin 250-400 K316C; source: E. coli BL21 (DE3), purified (cobalt-Talon, TEV cleavage, HiTrap Q, SEC); not shown: His-tag, N-terminal, cleaved
T3 sequence (looked up): T2 sequence (looked up) with C18Y, K67C

B1: His-tagged lamin A/C 1-300 fragment, wild type (domain or fragment, human, UniProt P02545 1-300, looked up)
chain: T1 chain with C45Y
notes: lamin A/C, human, residues 1-300 (N-terminal head, coil 1a, L1, coil 1b and following residues); pProEx-HTa vector: a TEV protease cleavage site stands between the His-tag and the lamin residues; also called lamin 300 fragment; His-lamin 1-300 WT; source: E. coli BL21 (DE3), purified (cobalt-Talon, HiTrap Q, SEC); not shown: His-tag, N-terminal, kept
B2: His-tagged lamin A/C 1-300 fragment, L59R (domain or fragment, human, UniProt P02545 1-300, looked up)
chain: T1 chain with C45Y, L59R
notes: lamin A/C, human, residues 1-300 with the CDM1A mutation L59R; pProEx-HTa vector: a TEV protease cleavage site stands between the His-tag and the lamin residues; also called His-lamin 1-300 L59R; lamin 300 L59R; source: E. coli BL21 (DE3), purified (cobalt-Talon, HiTrap Q, SEC); not shown: His-tag, N-terminal, kept
B3: His-tagged lamin A/C 1-300 fragment, L35V (domain or fragment, human, UniProt P02545 1-300, looked up)
chain: T1 chain with L35V, C45Y
notes: lamin A/C, human, residues 1-300 with the EDMD mutation L35V; pProEx-HTa vector: a TEV protease cleavage site stands between the His-tag and the lamin residues; also called His-lamin 1-300 L35V; lamin 300 L35V; source: E. coli BL21 (DE3), purified (cobalt-Talon, HiTrap Q, SEC); not shown: His-tag, N-terminal, kept
B4: His-tagged lamin A/C 1-300 fragment, I63S (domain or fragment, human, UniProt P02545 1-300, looked up)
chain: T1 chain with C45Y, I63S
notes: lamin A/C, human, residues 1-300 with the EDMD mutation I63S; pProEx-HTa vector: a TEV protease cleavage site stands between the His-tag and the lamin residues; also called His-lamin 1-300 I63S; lamin 300 I63S; source: E. coli BL21 (DE3), purified (cobalt-Talon, HiTrap Q, SEC); not shown: His-tag, N-terminal, kept
B5: His-tagged lamin A/C 1-300 fragment, Y45C (domain or fragment, human, UniProt P02545 1-300, looked up)
chain: T1 chain
notes: lamin A/C, human, residues 1-300 with the EDMD mutation Y45C; pProEx-HTa vector: a TEV protease cleavage site stands between the His-tag and the lamin residues; also called His-lamin 1-300 Y45C; lamin 300 Y45C; source: E. coli BL21 (DE3), purified (cobalt-Talon, HiTrap Q, SEC); not shown: His-tag, N-terminal, kept
B6: lamin A/C 250-400 fragment, wild type, tag-free (domain or fragment, human, UniProt P02545 250-400, looked up)
chain: T2 sequence (looked up) with C18Y
notes: lamin A/C, human, residues 250-400 (C-terminal part of coil 2); His-tag cleaved with TEV protease; also called lamin 250-400; coil 2 fragment; source: E. coli BL21 (DE3), purified (cobalt-Talon, TEV cleavage, HiTrap Q, SEC); not shown: His-tag, N-terminal, cleaved
B7: His-tagged lamin A/C 1-125 fragment, L59R (domain or fragment, human, UniProt P02545 1-125, looked up)
chain: METPSQRRATRSGAQASSTPLSPTRITRLQEKEDLQELNDRLAVYIDRVRSLETENAGRRLRITESEEVVSREVSGIKAAYEAELGDARKTLDSVAKERARLQLELSKVREEFKELKARNTKKEG
notes: pProEx-HTa vector: a TEV protease cleavage site stands between the His-tag and the lamin residues; also called His-lamin 1-125 L59R; source: E. coli BL21 (DE3), purified (cobalt-Talon, HiTrap Q, SEC); not shown: His-tag, N-terminal, kept
B8: His-tagged lamin A/C 1-125 fragment, Y45C (domain or fragment, human, UniProt P02545 1-125, looked up)
chain: B7 chain with Y45C, R59L
notes: pProEx-HTa vector: a TEV protease cleavage site stands between the His-tag and the lamin residues; source: E. coli BL21 (DE3), purified (cobalt-Talon, HiTrap Q, SEC); not shown: His-tag, N-terminal, kept
B9: His-tagged lamin A/C 1-125 fragment, wild type (domain or fragment, human, UniProt P02545 1-125, looked up)
chain: B7 chain with R59L
notes: pProEx-HTa vector: a TEV protease cleavage site stands between the His-tag and the lamin residues; also called coil 1a fragment; source: E. coli BL21 (DE3), purified (cobalt-Talon, HiTrap Q, SEC); not shown: His-tag, N-terminal, kept
B10: His-tagged lamin A/C 1-125 fragment, I63S (domain or fragment, human, UniProt P02545 1-125, looked up)
chain: B7 chain with R59L, I63S
notes: as for B8

Tests used:
[1] = target: the molecule itself; assay: not stated; purified lamin 300 fragments in solution; how the dimeric state was found is not told
[2] = target: T1, His-tagged lamin A/C 1-300 fragment, …; assay: ITC; His-tagged lamin 300 fragments in the cell (25 uM), TEV-cleaved lamin 250-400 in the syringe (180 uM); PBS; 25 °C; 19 injections of 2 uL; details: remark: other sources report otherwise
[3] = target: B1; assay: pull-down; His-tagged lamin 1-300 variants on Ni-NTA resin as bait, tag-free lamin 250-400 as prey; 20 mM Tris-HCl pH 8.0 with 50 mM or 150 mM NaCl; room temperature 30 min; SDS-PAGE; details: both partners purified
[4] = target: B2; assay: ITC; His-tagged lamin 300 fragments in the cell (25 uM), TEV-cleaved lamin 250-400 in the syringe (180 uM); PBS; 25 °C; 19 injections of 2 uL; details: both partners purified
[5] = target: B3; assay: as above; details: both partners purified
[6] = target: B4; assay: as above; details: both partners purified
[7] = target: B6; assay: pull-down; His-tagged lamin 1-125 variants on Ni-NTA resin as bait, lamin 250-400 as prey; 20 mM Tris-HCl pH 8.0 with 50 mM NaCl; SDS-PAGE; details: both partners purified
[8] = target: T2, lamin A/C 250-400 fragment, Y267C; assay: pull-down; His-tagged lamin 1-125 (wild type or L38C, L42C) on Ni-NTA resin, lamin 250-400 fragments (wild type or cysteine mutants) as prey; oxidized (0.5 mM GSSG) and reducing (5 mM TCEP) conditions; SDS-PAGE; details: both partners purified
[9] = target: T3, lamin A/C 250-400 fragment, K316C; assay: as above; details: both partners purified
[10] = target: B6; assay: as above; details: both partners purified

For B1, the “stoichiometry N” value [1] was 2.

For B2, the “stoichiometry N” value [1] was 2.

B3 was tested, and the “stoichiometry N” value [1] was 2.

For B4, the “stoichiometry N” value [1] was 2.

For B5, the “stoichiometry N” value [1] was 2.

For B6, the fold decrease of the interaction (KD) against wild type [2] was 5 fold, the binding result [3] was “binds” and the “fold increase of the interaction (KD) against wild type” value [4] was ~56 fold. The “fold decrease of the interaction (KD) against wild type” value [5] was ~2 fold and the “fold increase of the interaction (KD) against wild type” value [6] was ~2 fold.

B7: binds [7].

B8: binds [7].

B9: binds [8]; binds [9]; binds [10].

B10: binds [7].
